Bridge positions count the residues as written; N and C are the ends. Square brackets hold non-standard residues; d marks the D form. Primed or numbered codes have the meaning given here. Ends that are not written are not given here. * marks the point of attachment. O‑Bzl(CF3)2 = C-terminal bis(trifluoromethyl)benzyl ester; Glc = O-glucosyl on Ser side chain (Ser(OGlu)/Ser(OGlc)); NH(3,5-(CF3)2-benzyl) = FC(F)(F)c1cc(CN*)cc(C(F)(F)F)c1; OBzl(3,5-(CF3)2) = FC(F)(F)c1cc(CO*)cc(C(F)(F)F)c1; Glc″ = glucosyl on the serine side-chain oxygen; O‑Bzl(CF3)2(3) = C-terminal O-Bzl(CF3)2 ester; NH‑Bn(CF3)2 = C-terminal Bn(CF3)2 amide; Dmt = Cc1cc(O)cc(C)c1C[C@H](N)C(=O)O; Met(O) = CS(=O)CC[C@H](N)C(=O)O; dPen = CC(C)(S)[C@@H](N)C(=O)O; Pen = CC(C)(S)[C@H](N)C(=O)O; Nle = CCCC[C@H](N)C(=O)O; Abu = CC[C@H](N)C(=O)O; Aib = CC(C)(N)C(=O)O; GABA = NCCCC(=O)O; βAla = NCCC(=O)O
Experiments:
[1] = biological target: guinea pig NK1 receptor (guinea pig) (UniProt P30547); assay: cell-based or functional assay
Chain of guinea pig NK1 receptor (guinea pig) (P30547 whole entry): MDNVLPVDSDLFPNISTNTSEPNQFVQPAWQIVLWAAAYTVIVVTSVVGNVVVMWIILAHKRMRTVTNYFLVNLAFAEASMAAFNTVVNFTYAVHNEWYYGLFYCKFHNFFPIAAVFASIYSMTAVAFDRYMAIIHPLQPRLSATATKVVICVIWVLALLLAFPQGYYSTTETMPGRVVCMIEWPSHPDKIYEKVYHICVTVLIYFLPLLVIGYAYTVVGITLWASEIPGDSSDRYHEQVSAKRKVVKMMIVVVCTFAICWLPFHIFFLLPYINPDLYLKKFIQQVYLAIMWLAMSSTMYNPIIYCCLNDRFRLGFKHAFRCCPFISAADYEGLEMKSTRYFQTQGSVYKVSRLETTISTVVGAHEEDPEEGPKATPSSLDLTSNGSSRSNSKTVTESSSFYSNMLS

[2] = biological target: δ opioid receptor of the mouse isolated vas deferens (mouse) (UniProt P32300); assay: cell-based or functional assay
Chain of δ opioid receptor of the mouse isolated vas deferens (mouse) (P32300 whole entry, stated change not applied): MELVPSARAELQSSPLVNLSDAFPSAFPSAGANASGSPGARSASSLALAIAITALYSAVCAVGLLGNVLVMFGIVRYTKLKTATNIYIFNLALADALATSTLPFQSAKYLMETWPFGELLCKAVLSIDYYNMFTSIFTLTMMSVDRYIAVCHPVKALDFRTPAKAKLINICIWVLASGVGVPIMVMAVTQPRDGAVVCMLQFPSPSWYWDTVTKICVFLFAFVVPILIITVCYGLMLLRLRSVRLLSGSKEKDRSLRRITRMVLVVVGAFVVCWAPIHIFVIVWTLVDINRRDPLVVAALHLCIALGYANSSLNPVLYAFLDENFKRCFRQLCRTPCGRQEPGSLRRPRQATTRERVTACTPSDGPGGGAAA

[3] = biological target: µ opioid receptor of the guinea pig isolated ileum (guinea pig) (UniProt P97266); assay: cell-based or functional assay
Chain of µ opioid receptor of the guinea pig isolated ileum (guinea pig) (P97266 whole entry): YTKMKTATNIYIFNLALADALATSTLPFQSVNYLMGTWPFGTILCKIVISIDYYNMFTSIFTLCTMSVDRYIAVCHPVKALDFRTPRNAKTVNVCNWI

[4] = biological target: δ opioid receptor of the mouse isolated vas deferens (mouse), P32300; assay: cell-based or functional assay
Chain of δ opioid receptor of the mouse isolated vas deferens (mouse), P32300 (P32300 whole entry, stated change not applied): as the sequence (P32300 whole entry, stated change not applied) above

rat NK1 receptor (rat) [5] = biological target: rat NK1 receptor (rat) (UniProt P14600); assay: radioligand competition vs [3H]substance P, membranes of rNK1 CHO cells
Chain of rat NK1 receptor (rat) (P14600 whole entry): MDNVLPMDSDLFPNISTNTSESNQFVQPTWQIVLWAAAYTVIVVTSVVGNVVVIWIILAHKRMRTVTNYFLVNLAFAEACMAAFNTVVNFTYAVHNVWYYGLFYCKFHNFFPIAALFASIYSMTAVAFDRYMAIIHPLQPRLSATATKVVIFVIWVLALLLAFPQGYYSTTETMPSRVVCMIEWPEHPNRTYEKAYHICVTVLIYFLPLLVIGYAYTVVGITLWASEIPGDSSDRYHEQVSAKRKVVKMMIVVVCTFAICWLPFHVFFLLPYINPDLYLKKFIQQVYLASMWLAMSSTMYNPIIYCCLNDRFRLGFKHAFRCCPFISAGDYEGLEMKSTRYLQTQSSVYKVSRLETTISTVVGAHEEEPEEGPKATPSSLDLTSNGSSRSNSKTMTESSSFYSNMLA

[6] = biological target: rat µ opioid receptor (rat) (UniProt P33535); assay: radioligand competition vs [3H]DAMGO, membranes of rMOR cells
Chain of rat µ opioid receptor (rat) (P33535 whole entry): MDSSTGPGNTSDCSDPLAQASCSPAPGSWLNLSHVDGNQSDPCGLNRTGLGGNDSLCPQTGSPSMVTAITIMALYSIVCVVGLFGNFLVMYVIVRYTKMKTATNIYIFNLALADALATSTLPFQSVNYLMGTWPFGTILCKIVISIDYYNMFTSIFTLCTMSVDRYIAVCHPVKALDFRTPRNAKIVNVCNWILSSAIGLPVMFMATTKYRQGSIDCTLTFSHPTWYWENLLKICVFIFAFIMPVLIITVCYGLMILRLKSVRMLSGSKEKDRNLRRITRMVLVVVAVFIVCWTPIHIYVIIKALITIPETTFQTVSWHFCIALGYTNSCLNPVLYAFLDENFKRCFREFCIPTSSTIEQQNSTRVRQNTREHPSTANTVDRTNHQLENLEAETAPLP

[7] = biological target: rat µ opioid receptor (rat) (UniProt P33535); assay: cell-based or functional assay
[8] = biological target: human NK1 receptor (human) (UniProt P25103); assay: radioligand competition vs [3H]substance P, membranes of hNK1 CHO cells
Chain of human NK1 receptor (human) (P25103 whole entry): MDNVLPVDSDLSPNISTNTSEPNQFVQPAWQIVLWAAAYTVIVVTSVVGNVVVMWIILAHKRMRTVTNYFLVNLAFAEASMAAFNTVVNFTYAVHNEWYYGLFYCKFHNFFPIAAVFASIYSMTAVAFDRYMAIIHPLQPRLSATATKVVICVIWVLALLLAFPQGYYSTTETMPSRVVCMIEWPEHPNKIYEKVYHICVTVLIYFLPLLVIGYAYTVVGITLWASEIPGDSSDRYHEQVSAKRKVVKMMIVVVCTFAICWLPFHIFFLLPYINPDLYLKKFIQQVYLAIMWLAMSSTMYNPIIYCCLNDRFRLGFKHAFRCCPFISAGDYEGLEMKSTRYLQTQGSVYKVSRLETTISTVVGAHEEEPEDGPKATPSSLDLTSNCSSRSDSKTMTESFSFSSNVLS

[9] = biological target: human δ opioid receptor (human) (UniProt P41143); assay: radioligand competition vs [3H]DPDPE, membranes of hDOR cells
Chain of human δ opioid receptor (human) (P41143 whole entry, stated change not applied): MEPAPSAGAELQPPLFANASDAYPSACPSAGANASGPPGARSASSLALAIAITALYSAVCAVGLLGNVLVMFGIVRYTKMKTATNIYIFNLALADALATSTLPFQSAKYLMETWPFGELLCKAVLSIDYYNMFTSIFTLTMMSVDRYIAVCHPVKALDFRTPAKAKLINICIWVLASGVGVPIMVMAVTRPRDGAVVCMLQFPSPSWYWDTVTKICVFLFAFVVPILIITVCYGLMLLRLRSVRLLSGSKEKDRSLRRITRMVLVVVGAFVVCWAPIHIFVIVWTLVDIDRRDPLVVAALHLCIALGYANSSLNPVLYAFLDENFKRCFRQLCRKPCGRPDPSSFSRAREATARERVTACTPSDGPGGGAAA

[10] = biological target: human δ opioid receptor (human) (UniProt P41143); assay: cell-based or functional assay
rat NK1 receptor (rat) [11] = biological target: rat NK1 receptor (rat) (UniProt P14600); assay: competition vs [3H]Substance P, rNK1 CHO cell membranes
[12] = biological target: human NK1 receptor (human) (UniProt P25103); assay: competition vs [3H]Substance P, hNK1 CHO cell membranes
[13] = biological target: rat µ opioid receptor (rat) (UniProt P33535); assay: competition vs [3H]DAMGO, rMOR cell membranes
[14] = biological target: human δ opioid receptor (human) (UniProt P41143); assay: competition vs [3H]DPDPE, hDOR cell membranes

In the case of Y[dA]GF[GABA]W-{O‑Bzl(CF3)2(3)} [Tyr-DAla-Gly-Phe-γ-Abu-Trp-O-Bzl(CF3)2 (NP34)], the GPI/LMMP SP antagonist Ke [1] is reported as 0.96 nM, the MVD δ-agonist IC50 [2] is reported as 67.9 nM and the GPI/LMMP µ-agonist IC50 [3] is reported as 200 nM.

Binder Y[dA]GFMW-{O‑Bzl(CF3)2} [Tyr-DAla-Gly-Phe-Met-Trp-O-Bzl(CF3)2 (NP38)] has a GPI/LMMP SP antagonist Ke [1] of 2 nM and an MVD δ-agonist IC50 [2] of 9.07 nM.

Binder Y[dA]GF[Abu]W-{O‑Bzl(CF3)2(3)} [Tyr-DAla-Gly-Phe-α-Abu-Trp-O-Bzl(CF3)2 (NP33)] has a GPI/LMMP SP antagonist Ke [1] of 5.6 nM, an MVD δ-agonist IC50 [2] of 12.4 nM and a GPI/LMMP µ-agonist IC50 [3] of 600 nM.

Work on Y[dA]GF[Nle]PLS(Glc)W-{NH‑Bn(CF3)2} [TyrDAlaGlyPheNleProLeuSer(OGlu)TrpNHBn(CF3)2 (TY055)] yielded an MVD opioid(delta) agonist IC50 [4] of 17.4 nM.

Y[dA]GF[dA]W-{O‑Bzl(CF3)2(3)} [Tyr-DAla-Gly-Phe-D-Ala-Trp-O-Bzl(CF3)2 (NP40)] gave a GPI/LMMP SP antagonist Ke [1] of 608 nM, an MVD δ-agonist IC50 [2] of 58 nM and a GPI/LMMP µ-agonist IC50 [3] of 528 nM.

In the case of Y[dA]GF[Nle]PS(Glc)W-{NH‑Bn(CF3)2} [TyrDAlaGlyPheNleProSer(OGlu)TrpNHBn(CF3)2 (TY041)], the MVD opioid(delta) agonist IC50 [4] is reported as 12.7 nM.

B1: H-Tyr-D-Ala-Gly-Phe-Nle-Pro-Leu-Trp-O-3,5-Bzl(CF3)2 (peptide)
peptide: YAGFXPLW
modifications: here or on the partner: D-Ala at 2; Nle (norleucine, written X) at 5; C-terminal 3,5-bis(trifluoromethyl)benzyl ester
B1 showed an MVD (δ) opioid agonist IC50 [4] of 16.8 nM.

B2: TyrDAlaGlyPheSer(OGlu)ProLeuTrpNHBn(CF3)2 (TY042) (peptide)
peptide: Y[dA]GFSPLW-{NH(3,5-(CF3)2-benzyl)}
modifications: not fully specified (residue 5); printed as TyrDAlaGlyPheSer(OGlu)ProLeuTrpNHBn(CF3)2
B2 showed an MVD opioid(delta) agonist IC50 [4] of 109 nM.

H-Y[dA]GF[Met(O)]PLW-{OBzl(3,5-(CF3)2)} (also: TFA salt) [H-Tyr-D-Ala-Gly-Phe-Met(O)-Pro-Leu-Trp-O-3,5-Bzl(CF3)2] showed an MVD (δ) opioid agonist IC50 [4] of 33 nM.

[Dmt][dA]GF[Nle]PS(Glc)W-{NH‑Bn(CF3)2} [DmtDAlaGlyPheNleProSer(OGlu)TrpNHBn(CF3)2 (TY056)] showed an MVD opioid(delta) agonist IC50 [4] of 3.62 nM.

Y[dA]GFGW-{O‑Bzl(CF3)2(3)} [Tyr-DAla-Gly-Phe-Gly-Trp-O-Bzl(CF3)2 (NP30)] was tested, and the GPI/LMMP SP antagonist Ke [1] was 58.9 nM, the MVD δ-agonist IC50 [2] was 20.9 nM and the GPI/LMMP µ-agonist IC50 [3] was 25.7 nM.

Y[dA]GF[Aib]W-{O‑Bzl(CF3)2(3)} [Tyr-DAla-Gly-Phe-Aib-Trp-O-Bzl(CF3)2 (NP41)] was tested, and the MVD δ-agonist IC50 [2] was 36.2 nM.

With Y[dPen]GF[Nle]P[dPen]W-{NH‑Bn(CF3)2} (disulfide 2-7) [Tyr[DPenGlyPheNleProDPen]TrpNHBn(CF3)2 (TY048)] the Ki (rat NK1 receptor (rat) [5]) was 26 nM, the Ki [6] was 998 nM and the GTP binding rMOR EC50 [7] was 135 nM. It also gave a GTP binding rMOR Emax [7] of 29% and a Ki [8] of 1.9 nM.

Y[dA]GFPW-{O‑Bzl(CF3)2} [Tyr-DAla-Gly-Phe-Pro-Trp-O-Bzl(CF3)2 (NP39)] was tested, and the GPI/LMMP SP antagonist Ke [1] was 1.8 nM and the MVD δ-agonist IC50 [2] was 84.6 nM.

Work on Y[dC]GFCPLW-{NH(3,5-(CF3)2-benzyl)} (disulfide 2-5) [Tyr[DCysGlyPheCys]ProLeuTrpNHBn(CF3)2 (TY039)] yielded an MVD opioid(delta) agonist IC50 [4] of 73.1 nM.

Binder Y[dA]GFW-{OBzl(3,5-(CF3)2)} [Tyr-D-Ala-Gly-Phe-Trp-O-3′,5′(CF3)2-Bzl (NP36)] has a GPI SP-antagonist Ke [1] of 38 nM and an MVD δ-agonist IC50 [2] of 43.1 nM.

Y[dPen]GF[Nle]P[Pen]W-{NH‑Bn(CF3)2} (disulfide 2-7) [Tyr[DPenGlyPheNleProPen]TrpNHBn(CF3)2 (TY047)] gave a Ki [9] of 152 nM, a Ki (rat NK1 receptor (rat) [5]) of 163 nM and a Ki [6] of 1970 nM. It also gave a GTP binding rMOR EC50 [7] of 2910 nM, a GTP binding rMOR Emax [7] of 15% and a Ki [8] of 59 nM.

Y[dC]GF[Nle]P[dC]W-{NH(3,5-(CF3)2-benzyl)} (disulfide 2-7) [Tyr[DCysGlyPheNleProDCys]TrpNHBn(CF3)2 (TY038)] was tested, and the Ki [9] was 55.5 nM, the Ki (rat NK1 receptor (rat) [5]) was 7.11 nM and the Ki [6] was 156 nM. The GTP binding hDOR EC50 [10] was 14 nM, the GTP binding hDOR Emax [10] was 87% and the GTP binding rMOR EC50 [7] was 21.7 nM. The GTP binding rMOR Emax [7] was 11%, the MVD opioid(delta) agonist IC50 [4] was 18.9 nM and the Ki [8] was 0.24 nM.

Binder Y[dPen]GF[Nle]P[dPen]W-{NH(3,5-(CF3)2-benzyl)} (disulfide 2-7) [Tyr[DPenGlyPheNleProDPen]TrpNHBn(CF3)2] has a Ki (rat NK1 receptor (rat) [11]) of 26 nM and a Ki [12] of 1.9 nM.

In the case of YAGFXPLW (here or on the partner: D-Ala at 2; Nle at 5 (X); C-terminal NH-Bn(CF3)2 amide) [TyrDAlaGlyPheNleProLeuTrpNHBn(CF3)2 (TY045)], the MVD opioid(delta) agonist IC50 [4] is reported as 13.6 nM.

For Y[dA]GFAW-{O‑Bzl(CF3)2(3)} [Tyr-DAla-Gly-Phe-Ala-Trp-O-Bzl(CF3)2 (NP31)], the GPI/LMMP SP antagonist Ke [1] was 18.6 nM, the MVD δ-agonist IC50 [2] was 6.4 nM and the GPI/LMMP µ-agonist IC50 [3] was 401 nM.

Binder Y[dA]GF[βAla]W-{O‑Bzl(CF3)2(3)} [Tyr-DAla-Gly-Phe-β-Ala-Trp-O-Bzl(CF3)2 (NP32)] has a GPI/LMMP SP antagonist Ke [1] of 250 nM, an MVD δ-agonist IC50 [2] of 12.6 nM and a GPI/LMMP µ-agonist IC50 [3] of 435 nM.

For Y[dA]GW-{OBzl(3,5-(CF3)2)} [Tyr-D-Ala-Gly-Trp-O-3′,5′(CF3)2-Bzl (NP44)], the GPI SP-antagonist Ke [1] was 5 nM and the MVD δ-agonist IC50 [2] was 303 nM.

Y[dA]GF[Nle]S(Glc″)LW-{NH‑Bn(CF3)2} [TyrDAlaGlyPheNleSer(OGlu)LeuTrpNHBn(CF3)2 (TY044)] showed an MVD opioid(delta) agonist IC50 [4] of 18 nM.

Y[dA]GFMPLW-OH [TyrDAlaGlyPheMetProLeuTrpOH (TY043)] was tested, and the MVD opioid(delta) agonist IC50 [4] was 8.18 nM.

For Y[dPen]GF[Nle]P[Pen]W-{NH(3,5-(CF3)2-benzyl)} (disulfide 2-7) [Tyr[DPenGlyPheNleProPen]TrpNHBn(CF3)2], the GTP binding EC50 [7] was 2910 nM, the GTP binding Emax [7] was 15% and the Ki (rat NK1 receptor (rat) [11]) was 163 nM. It also gave a Ki [13] of 1970 nM, a Ki [12] of 59 nM and a Ki [14] of 152 nM.

For Y[dA]GFLW-{O‑Bzl(CF3)2} [Tyr-DAla-Gly-Phe-Leu-Trp-O-Bzl(CF3)2 (NP37)], the MVD δ-agonist IC50 [2] was 25.7 nM.

Reference: patent publication US8026218
